Source: patent US20030004314A1 (published 2003)
Substitutions are numbered along the chain they refer to. In names and notes the source's numbering stands.

T1: T cell IL-4 receptor (IL-4Rα/IL-2Rγ) (human, UniProt P24394 26-825; P31785 23-369)
T1 sequence (looked up) 1: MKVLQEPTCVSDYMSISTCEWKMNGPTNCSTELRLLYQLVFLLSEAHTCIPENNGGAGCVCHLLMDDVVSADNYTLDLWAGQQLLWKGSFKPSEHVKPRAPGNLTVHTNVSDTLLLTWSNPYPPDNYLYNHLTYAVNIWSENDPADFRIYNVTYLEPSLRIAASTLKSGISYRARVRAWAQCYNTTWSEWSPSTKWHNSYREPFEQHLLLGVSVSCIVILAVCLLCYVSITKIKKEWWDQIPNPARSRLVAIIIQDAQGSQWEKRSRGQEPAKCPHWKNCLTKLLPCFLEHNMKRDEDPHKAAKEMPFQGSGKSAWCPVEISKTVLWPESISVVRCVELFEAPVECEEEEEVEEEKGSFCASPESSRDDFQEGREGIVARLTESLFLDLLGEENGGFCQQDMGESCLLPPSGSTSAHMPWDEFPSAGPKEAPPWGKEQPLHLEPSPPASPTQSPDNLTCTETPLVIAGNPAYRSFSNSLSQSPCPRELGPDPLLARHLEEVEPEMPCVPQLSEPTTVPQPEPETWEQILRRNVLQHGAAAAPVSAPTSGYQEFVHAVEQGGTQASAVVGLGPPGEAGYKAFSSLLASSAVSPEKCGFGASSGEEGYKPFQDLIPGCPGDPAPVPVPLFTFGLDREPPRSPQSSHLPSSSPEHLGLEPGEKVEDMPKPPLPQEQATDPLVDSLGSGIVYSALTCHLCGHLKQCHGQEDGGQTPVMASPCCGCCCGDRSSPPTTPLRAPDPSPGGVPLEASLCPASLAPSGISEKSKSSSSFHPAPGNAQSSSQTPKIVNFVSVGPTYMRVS
T1 sequence (looked up) 2: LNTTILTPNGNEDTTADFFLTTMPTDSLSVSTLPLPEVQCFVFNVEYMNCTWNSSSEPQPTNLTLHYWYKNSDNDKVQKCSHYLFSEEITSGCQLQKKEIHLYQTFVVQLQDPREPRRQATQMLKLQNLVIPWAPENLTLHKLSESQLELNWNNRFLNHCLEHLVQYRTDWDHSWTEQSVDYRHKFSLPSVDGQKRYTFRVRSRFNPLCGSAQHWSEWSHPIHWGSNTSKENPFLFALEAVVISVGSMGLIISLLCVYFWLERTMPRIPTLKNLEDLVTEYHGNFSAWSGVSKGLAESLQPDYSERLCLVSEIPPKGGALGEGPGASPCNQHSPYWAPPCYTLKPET

B1: IL-4 mutein R121N (ligand)
chain: HKCDITLQEIIKTLNSLTEQKTLCTELTVTDIFAASKNTTEKETFCRAATVLRQFYSHHEKDTRCLGATAQQFHRHKQLIRFLKRLDRNLWGLAGLNSCPVKEANQSTLENFLERLKTIMNEKYSKCSS
B2: IL-4 mutein R121K (ligand)
chain: B1 chain with N121K
B3: IL-4 mutein R121H (ligand)
chain: B1 chain with N121H
B4: IL-4 mutein R121I (ligand)
chain: B1 chain with N121I
B5: IL-4 mutein R121A (ligand)
chain: B1 chain with N121A
B6: IL-4 mutein Y124A (ligand)
chain: B1 chain with N121R, Y124A
B7: IL-4 mutein Y124T (ligand)
chain: B1 chain with N121R, Y124T
B8: IL-4 mutein R121P (ligand)
chain: B1 chain with N121P
B9: IL-4 mutein Y124S (ligand)
chain: B1 chain with N121R, Y124S
B10: IL-4 mutein Y124A/S125A (ligand)
chain: B1 chain with N121R, Y124A, S125A
B11: IL-4 mutein Y124R (ligand)
chain: B1 chain with N121R, Y124R
B12: IL-4 mutein R121F (ligand)
chain: B1 chain with N121F
B13: IL-4 mutein R121W (ligand)
chain: B1 chain with N121W
B14: IL-4 mutein R121T (ligand)
chain: B1 chain with N121T
B15: IL-4 mutein Y124Q (ligand)
chain: B1 chain with N121R, Y124Q
B16: IL-4 mutein R121E (ligand)
chain: B1 chain with N121E
B17: IL-4 mutein R121T/E122F/Y124Q (ligand)
chain: B1 chain with N121T, E122F, Y124Q
B18: IL-4 mutein T13D/R121E (ligand)
chain: B1 chain with T13D, N121E
B19: IL-4 mutein R121D (ligand)
chain: B1 chain with N121D

What follows are binders tested against T2, HUVEC IL-4 receptor (IL-4Rα/γ-like receptor component) (human, UniProt P24394 26-825) (assay: cell-based or functional assay).

HUVEC, IL-6 secretion, EC50, pM [pM] | Binder
35 | B1
100 | B2
40 | B3
40 | B4
20 | B5
65 | B6
350 | B7
650 | B8
350 | B9
200 | B10
250 | B11
20 | B12
80 | B13
20 | B14
200 | B15

Each binder was assayed against T1, T cell IL-4 receptor (IL-4Rα/IL-2Rγ) (assay: cell-based or functional assay).

1° T cell proliferation, EC50, pM [pM] | Binder
65 | B16
150 | B1
150 | B2
150 | B3
100 | B4
150 | B5
150 | B6
15 | B17
300 | B7
100 | B8
425 | B9
100 | B18
600 | B10
750 | B11
100 | B19
150 | B12
150 | B13
150 | B14
250 | B15

Molecular target: T2, HUVEC IL-4 receptor (IL-4Rα/γ-like …)
Test: cell-based or functional assay
Remark: another data set of the same source

IC50, HUVEC antagonist assay (IL-4-induced IL-6 secretion) [nM] | antagonist potency relative to R121E, HUVEC antagonist assay [fold] | Binder
~60 |  | B16
~2.2 | ~27 | B18
